# Measured values from publication PMC8626469, “Helicobacter pylori FabX contains a [4Fe-4S] cluster essential for unsaturated fatty acid synthesis” (Nature Communications, 2021).
# What was measured:
# [1] = target: Helicobacter pylori FabX R164A (H. pylori)
# [2] = target: Helicobacter pylori FabX (H. pylori); experiment: SEC-MALS; 10 mg/ml FabX, holo-ACP or FabX-holo-ACP complex on a WTC-030S5 column; 20 mM HEPES pH 8.0, 50 mM NaCl, 10 mM TCEP
# [3] = substrate: CCCCCCCCCC(=O)SCCNC(=O)CCNC(=O)[C@H](O)C(C)(C)COP(=O)(O)OP(=O)(O)OC[C@H]1O[C@@H](n2cnc3c(N)ncnc32)[C@H](O)[C@@H]1OP(=O)(O)O; experiment: purified protein; format: biochemical, Helicobacter pylori; settings: pH 7.2, 50 mM sodium phosphate, 50 mM NaCl, 25-37 °C, 1.25 uM FabX, 5 uM E. coli FabI, 125 uM NADH, dehydrogenation of substrate analogue of decanoyl-ACP, 30-250 uM
binder,measurement,setting,value
Helicobacter pylori decanoyl-acyl carrier protein (natural protein) MALFEDIQAVIAEQLNVDAVQVTPEAEFVKDLGADSLDVVELIMALEEKFGVEIPDEQAEKIINVGDVVKYIEDNKLA,"in vitro dehydrogenation activity with decanoyl-ACP (FabX-FabI coupled assay), fold reduction against wild type FabX",[1],80 fold
"Helicobacter pylori holo-acyl carrier protein (natural protein, phosphopantetheine group (PPant) on Ser36) MALFEDIQAVIAEQLNVDAVQVTPEAEFVKDLGADSLDVVELIMALEEKFGVEIPDEQAEKIINVGDVVKYIEDNKLA",stoichiometry N,[2],1
"FabX (Helicobacter pylori) (protein, full length, 363 residues; expressed in E. coli BL21(DE3) Rosetta; monomer in the asymmetric unit; holds FMN and a [4Fe-4S] cluster) MVSTLKPLKIGKHTIKFPIFQGGMGVGISWDELAGNVAKEGALGVISAVGTGYYKNMRFVERIVAKKPFEALNFYSKKALNEIFANARKICGNNPLGANILYAINDYGRVLRDSCEAGANIIITGAGLPTNMPEFAKDFSDVALIPIISSAKALKILCKRWSDRYKRIPDAFIVEGPLSGGHQGFKYEDCFKEEFRLENLVPKVVEASKEWGNIPIIAAGGIWDRKDIDTMLSLGASGVQMATRFLGTKECDAKVYADLLPTLKKEDILLIKSPVGYPARAINTGVIKRIEEGNAPKIACVSNCVAPCNRGEEAKKVGYCIADGLGRSYLGNREEGLYFTGANGYRVDKIISVHELIKELTEG",Km,[3],125.40 µM
same,kcat,[3],0.0186 s⁻¹
